Test results from paper doi:10.1101/2021.07.12.452090 (bioRxiv, 2021).

biological target: His-tagged human CTLA-4 antigen (Homo sapiens, UniProt P16410)
Sequence (P16410 36-161): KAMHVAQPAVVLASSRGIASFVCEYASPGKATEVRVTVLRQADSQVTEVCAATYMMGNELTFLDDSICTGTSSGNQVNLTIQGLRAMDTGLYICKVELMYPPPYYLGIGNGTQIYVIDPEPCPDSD

Kd [nM]	Binder
5.1	aCTLA-4.4 (antibody, V domains shown) VH: QVQLVESGGGVVQPGRSLRLSCAASGFTFSNYGMNWVRQAPGKGLEWVAVIWYDGRNKHYADSVKGRFTISRDNSKNTLYLQMNSLRAEDTAVYYCARGGDWGPYFDYWGQGTLVTVSS VL: not shown
0.77	aCTLA-4.9 (antibody, V domains shown) VH: QVQLVESGGGVVQPGRSLRLSCAASGFTFSSFGMHWVRQAPGKGLEWVAVIWYDGRNKYYVDSVKGRFTISRDNSNNTLYLQMNSLRAEDTAVYYCARGEFFGEFFDYWGQGTLVTVSS VL: EIVLTQSPGTLSLSPGEGATLSCRASQSFSSNYLAWYQQKPGQAPRLLIYGASSRATGIPDRFSGSGSGTDFTLTISRLEPEDFAVYYCQQYGTSPFTFGPGTKVDIK
5.7	aCTLA-4.26 (antibody, V domains shown) VH: QVQLVESGGGVVQPGRSLRLSCAASGFTFSSYGMHWVRQAPGKGLEWVAVIWYDGSYKYYADSVKGRFTISRDDSKNTLYLQMSSLRAEDTAVYYCARAPHYAILTGYYEDYWGQGTLVTVSS VL: not shown
4.6	aCTLA-4.1 (antibody, V domains shown) VH: QVQLVESGGGVVQPGRSLRLSCAASGFTFSRYGMHWVRQAPGKGLEWVAVIWYDGRNKYYADSVKGRFTISRDNSKNTLYLQMNSLRAEDTALYSCARAGELGPFDYWGQGTLVTVSS VL: EIVLTQSPGTLSLSPGERATLSCRASQSVSYLAWYQQKPGQAPRLLIYGASSRATGIPDRFSGSGSGTDFTLTISRLEPEDFAVYYCQQYGSSPWTFGQGTKVEIK
6.8	aCTLA-4.24 (antibody, V domains shown) VH: QVQLVESGGGVVQPGRSLRLSCAASGFTFSSHGMHWVRQAPGKGLEWVAVIWYDGSNKHYADSVKGRFTISRDNSKNTLYLQMNSLRAEDTAVYYCARGDILTGYYGYWGQGTLVTVSS VL: not shown
